Assay results as given in patent US20240034774A1 (Gilead, published 2024).
Residue numbers refer to the chain shown, from its start.

T1: Human FcγRIIA-167R (human, UniProt P12318 36-218)
T1 sequence (looked up): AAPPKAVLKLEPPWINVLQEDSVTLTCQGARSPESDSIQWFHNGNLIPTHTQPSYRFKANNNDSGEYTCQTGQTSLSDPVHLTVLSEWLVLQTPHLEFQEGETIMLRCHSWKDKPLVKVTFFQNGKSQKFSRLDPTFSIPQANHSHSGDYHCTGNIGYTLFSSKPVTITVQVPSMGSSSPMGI

T2: Human FcγRIIA-167H (human, UniProt P12318 36-218)
T2 sequence (looked up): T1 sequence (looked up) with R132H

T3: Human FcγRIIB (human, UniProt P31994 46-217)
T3 construct: also called FcγRIIB/C; FcRIIB/C
T3 sequence (looked up): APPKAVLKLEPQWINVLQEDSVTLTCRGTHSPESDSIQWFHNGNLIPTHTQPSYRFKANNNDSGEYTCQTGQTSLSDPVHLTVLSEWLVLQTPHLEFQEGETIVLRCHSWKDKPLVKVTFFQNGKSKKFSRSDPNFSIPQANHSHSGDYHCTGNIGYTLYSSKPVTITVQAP

B1: Antibody A-1 (antibody, human IgG1, kappa)
heavy: QVQLLQSGAAVTKPGASVRVSCEASGYNIRDYFIHWWRQAPGQGLQWVGWINPKTGQPNNPRQFQGRVSLTRHASWDFDTFSFYMDLKALRSDDTAVYFCARQRSDYWDFDVWGSGTQVTVSSASTKGPSVFPLAPSSKSTSGGTAALGCLVKDYFPEPVTVSWNSGALTSGVHTFPAVLQSSGLYSLSSVVTVPSSSLGTQTYICNVNHKPSNTKVDKKVEPKSCDKTHTCPPCPAPELLAGPDVFLFPPKPKDTLMISRTPEVTCVVVDVSHEDPEVKFNWYVDGVEVHNAKTKPREEQYNSTYRVVSVLTVLHQDWLNGKEYKCKVSNKALPLPEEKTISKAKGQPREPQVYTLPPSREEMTKNQVSLTCLVKGFYPSDIAVEWESNGQPENNYKTTPPVLDSDGSFFLYSKLTVDKSRWQQGNVFSCSVLHEALHSHYTQKSLSLSPGK
light: DIQMTQSPSSLSASVGDTVTITCQANGYLNWYQQRRGKAPKLLIYDGSKLERGVPSRFSGRRWGQEYNLTINNLQPEDIATYFCQVYEFVVPGTRLDLKRTVAAPSVFIFPPSDEQLKSGTASVVCLLNNFYPREAKVQWKVDNALQSGNSQESVTEQDSKDSTYSLSSTLTLSKADYEKHKVYACEVTHQGLSSPVTKSFNRGEC
B2: Antibody A (antibody, human IgG1, kappa)
heavy: not shown
light: B1 light
B3: Antibody 1.52.64-1 (antibody, human IgG1, kappa)
heavy: B1 heavy with W76F
light: B1 light with V19A

What was measured:
Cyno FcRn [1] = target: T4, Cyno FcRn (cynomolgus macaque, UniProt Q8SPV9 24-297; Q8SPW0 21-119); experiment: SPR (Biacore 4000) at pH 6.0, biotinylated cyno FcRn captured on streptavidin C1 chip, antibody as analyte, steady-state fit
T4 construct: also called cynomolgus macaque FcRn; biotinylated cyno FcRn
Description: (§1) The in vitro binding dissociation constants (KD) of selected antibodies described herein for human and cynomolgus macaque (cyno) Fc binding receptors (FcγRs, FcRn) were determined using the Biacore 4000 surface plasmon resonace (SPR) biosensor, and either C1 or CM4 sensor chips (GE Healthcare). Biotinylated human FcRn was purchased from Immunitrack. Biotinylated cynomolgus macaque FcRn and human FcγRIIIB-NA1 and FcγRIIIB-NA2 were purchased from Acro Biosystems.
(§2) To determine cynomolgus macaque FcRn binding affinities, 600 RU of streptavidin was amine coupled to a C1 sensor chip using standard NHS/EDC coupling. The immobilization buffer was PBS+0.005% Tween 20, pH 7.4. Streptavidin was prepared at 50 μg/ml in 10 mM NaAc pH 4.5. Activation, coupling, and blocking steps were run for 10 minutes, each at 10 μl/min. Biotinylated cyno FcRn was captured to about 20 RU. Antibodies were tested for binding to the FcRn surface using a two-fold concentration series up to 1 μM. Data were collected at pH 6.0 and pH 7.4 in triplicate. The response data at steady-state were fit to a simple binding isotherm.

Human FcγRI = target: T5, Human FcγRI (human, UniProt P12314 16-288); experiment: SPR (Biacore 4000), antibody amine coupled to CM4 chip, FcγRI as analyte (3 and 30 nM), kinetic fit
T5 construct: also called CD64
Description: as §1
To determine human FcγRI binding affinities, each test antibody was amine coupled to a CM4 sensor chip at two densities (about 100 RU and about 800 RU). Human FcγRI was tested for binding using a two-step titration series (3 nM and 30 nM). Responses were fit to a simple kinetic model.

Human FcγRIIIA-176V = target: T6, Human FcγRIIIA-176V (human, UniProt P08637 17-208); experiment: SPR (Biacore 4000), receptor amine coupled to CM4 chip, antibody as analyte, steady-state fit
T6 construct: also called CD16a 176V

Human FcγRIIIA-176F = Human FcγRIIIA-176F (human, UniProt P08637 17-208); experiment: as above
Human FcγRIIA-167R = target: T1, Human FcγRIIA-167R; experiment: as above
Human FcγRIIA-167H = target: T2, Human FcγRIIA-167H; experiment: as above
Human FcγRIIB = target: T3, Human FcγRIIB; experiment: SPR (Biacore 4000), FcγRIIB/C amine coupled to CM4 chip, antibody as analyte, steady-state fit
Human FcγRIIIB-NA2 = target: T7, Human FcγRIIIB-NA2 (human, UniProt O75015 17-200); experiment: SPR (Biacore 4000), antibody amine coupled to CM4 chip, FcγRIIIB as analyte, steady-state fit
T7 construct: also called CD16b NA2

Human FcγRIIIB-NA1 = target: T8, Human FcγRIIIB-NA1 (human, UniProt O75015 17-200); experiment: as above
T8 construct: also called CD16b NA1

Cyno FcγRIIB = target: T9, Cyno FcγRIIB (cynomolgus macaque); experiment: SPR (Biacore 4000), antibody amine coupled to CM4 chip, cyno FcγRIIB as analyte, steady-state fit
T9 construct: also called cynomolgus macaque FcγRIIB
Description: (§3) The in vitro binding dissociation constants (KD) of selected antibodies described herein for human and cynomolgus macaque (cyno) Fc binding receptors (FcγRs, FcRn) were determined using the Biacore 4000 surface plasmon resonace (SPR) biosensor, and either C1 or CM4 sensor chips (GE Healthcare).
(§4) To determine cynomolgus macaque FcγRIIA, FcγRIIB, FcγRIII and FcγRI binding affinities each test antibody was amine coupled to a CM4 sensor chip at two densities (about 100 RU and about 800 RU). Cyno FcγRIIA and FcγRIIB were tested in a two-fold concentration series up to 1 μM. FcγRIII was tested in a two-fold concentration up to 500 nM. Cyno FcγRI was tested for binding using a two-step titration (3 nM and 30 nM). The response data for FcγRIIA, FcγRIIB, FcγRIII at steady-state were fit to a simple binding isotherm. Responses for FcγRI were fit to a simple kinetic model.

Cyno FcγRI = target: T10, Cyno FcγRI (cynomolgus macaque, UniProt A0A2K5U901 33-309); experiment: SPR (Biacore 4000), antibody amine coupled to CM4 chip, cyno FcγRI as analyte (3 and 30 nM), kinetic fit
T10 construct: also called cynomolgus macaque FcγRI
Description: as §3, §4

Human FcRn [2] = target: T11, Human FcRn (human, UniProt P55899 24-297; P61769 21-119); experiment: SPR (Biacore 4000) at pH 7.4, biotinylated FcRn captured on streptavidin C1 chip, antibody as analyte, steady-state fit
T11 construct: also called neonatal Fc-receptor; biotinylated human FcRn
Description: as §3
(§5) For human FcRn binding assays, 600 RU of streptavidin was amine coupled to a C1 sensor chip using standard NHS/EDC coupling. The immobilization buffer was PBS+0.005% Tween 20, pH 7.4. Streptavidin was prepared at 50 μg/ml in 10 mM NaAc pH 4.5. Activation, coupling, and blocking steps were run for 10 minutes, each at 10 μl/min. […] Data were collected at pH 6.0 and pH 7.4 in triplicate. The response data at steady-state were fit to a simple binding isotherm.

Cyno FcRn [3] = target: T4, Cyno FcRn; experiment: SPR (Biacore 4000) at pH 7.4, biotinylated cyno FcRn captured on streptavidin C1 chip, antibody as analyte, steady-state fit
Description: as §1, §2

Human FcRn [4] = target: T11, Human FcRn; experiment: SPR (Biacore 4000) at pH 6.0, biotinylated FcRn captured on streptavidin C1 chip, antibody as analyte, steady-state fit
Description: as §3, §5

gp120 REJO = gp120 REJO (HIV)
gp120 Bal = gp120 Bal (HIV-1)
gp120 CAAN = gp120 CAAN (HIV)
Cyno FcγRIII = target: T12, Cyno FcγRIII (cynomolgus macaque, UniProt Q8SPW2 17-208); experiment: SPR (Biacore 4000), antibody amine coupled to CM4 chip, cyno FcγRIII as analyte, steady-state fit
T12 construct: also called cynomolgus macaque FcγRIII
Description: as §3, §4

Cyno FcγRIIA = target: T13, Cyno FcγRIIA (cynomolgus macaque); experiment: SPR (Biacore 4000), antibody amine coupled to CM4 chip, cyno FcγRIIA as analyte, steady-state fit
T13 construct: also called cynomolgus macaque FcγRIIA
Description: as §3, §4

human C1q protein = target: T14, human C1q protein (human, UniProt P02745 23-245; P02746 28-253; P02747 29-245); experiment: C1q binding ELISA, antibody coated on plate, titrated human C1q, anti-C1q-HRP detection, n = 3 assays
T14 construct: also called complement protein C1q
Description: A dose response binding ELISA was conducted to determine the relative C1q binding affinity of antibodies described herein. To conduct they assay, a 384-well Maxisorp plate was coated with 25 μl of antibody solution at 5 μg/mL in PBS pH 7.4 overnight at 4° C. Plates were then blocked with 75 μL of 1% BSA in PBS for 2 hours and washed 4 times with PBS+0.05% Tween 20 (PBST). Next, 25 μL of a three-fold serial dilution of human C1q protein in PBS+5% BSA was added to the plates. Plates were incubated with shaking at 600 rpm for one hour, washed 4 times with PBST and then 25 μL of anti-C1q-HRP conjugated polyclonal antibody was added in PBS+5% BSA. Plates were incubated with shaking at 600 rpm for 15 minutes, washed 8 times with PBST and then developed using 3,3′,5,5′-Tetramethylbenzidine (TMB) substrate and quenched with HCl.

Row | Binder | Kd (Cyno FcRn [1]) [nM] | Kd (Human FcγRI) [pM] | Kd (Human FcγRIIIA-176V) [nM] | Kd (Human FcγRIIIA-176F) [nM] | Kd (Human FcγRIIA-167R) [nM] | Kd (Human FcγRIIA-167H) [nM] | Kd (Human FcγRIIB) [nM] | Kd (Human FcγRIIIB-NA2) [nM] | Kd (Human FcγRIIIB-NA1) [nM] | Kd (Cyno FcγRIIB) [nM] | Kd (Cyno FcγRI) [pM] | Kd (Human FcRn [2]) [nM] | Kd (Cyno FcRn [3]) [µM] | Kd (Human FcRn [4]) [nM] | EC50 (gp120 REJO) [nM] | EC50 (gp120 Bal) [nM] | EC50 (gp120 CAAN) [nM] | Kd (Cyno FcγRIII) [nM] | Kd (Cyno FcγRIIA) [nM] | EC50 (human C1q protein) [nM]
1 | B1 | 16 | 2 | 59 | 52 | 130 | 131 | 1600 | 56 | 59 | 240 | 5 | 1700 | 4.3 | 38 | 2.37 | 0.06 | 2.17 | 7.1 | 1100 | 
2 | B2 | 1100 | 107 | 670 | 2300 | 3000 | 1800 | 11000 | 1500 | 2000 | 895 | 38 | 42000 | 12.8 | 485 | 2.21 | 0.05 | 1.84 | 200 | 2000 | 2.2
3 | B3 | 22 | 1.2 | 67 | 63 | 199 | 221 | 1900 | 55 | 64 | 280 | 5 | 1120 | 5.3 | 49 | 4.02 | 0.07 | 3.79 | 8 | 1180 | 
